Changes are numbered by the printed parent chain. Like-named read-outs stand apart in the source and are kept apart here.

The target of test [1] is H3 hemagglutinin of H3N2 strain X-31 (influenza A virus X-31 (H3N2)) (UniProt P03437). The test can be described thus: cell-based or functional assay.
The target of test [2] is H1 hemagglutinin (A/Puerto Rico/8/34) (influenza A virus A/Puerto Rico/8/34 (H1N1)) (UniProt P03452). Briefly: cell-based or functional assay.
The target of test [3] is H3 hemagglutinin (A/New York/55/2004) (influenza A virus A/New York/55/2004 (H3N2)). The test can be described thus: ELISA on coated HA, relative Kd (4-parameter fit). For orientation: An ELISA detects its analyte on a solid surface through an enzyme-linked reagent.
Test [4] deals with H3 hemagglutinin (A/Brisbane/10/2007) (influenza A virus A/Brisbane/10/2007 (H3N2)). Briefly: ELISA on coated HA, relative Kd (4-parameter fit).
Test [5] has as its target H3 hemagglutinin (A/Wyoming/03/2003) (influenza A virus A/Wyoming/03/2003 (H3N2)). Briefly: ELISA on coated HA, relative Kd (4-parameter fit).
The target in test [6] is H1 hemagglutinin (A/Solomon Islands/3/2006) (influenza A virus A/Solomon Islands/3/2006). The test can be described thus: ELISA on coated HA, relative Kd (4-parameter fit).
Test [7] has as its target H7 hemagglutinin (A/Netherlands/219/2003) (influenza A virus A/Netherlands/219/2003 (H7N7)). Briefly: ELISA on coated HA, relative Kd (4-parameter fit).
Test [8] deals with H3 hemagglutinin (A/Wisconsin/67/2005) (influenza A virus A/Wisconsin/67/2005 (H3N2)). Briefly: ELISA on coated HA, relative Kd (4-parameter fit).
Test [9] addresses H9 hemagglutinin (A/Hong Kong/1073/99) (influenza A virus A/Hong Kong/1073/99 (H9)). Briefly: ELISA on coated HA, relative Kd (4-parameter fit).
Test [10] concerns the target H5 hemagglutinin (A/Vietnam/1203/2004) (influenza A virus A/Vietnam/1203/2004 (H5N1)). Briefly: ELISA on coated HA, relative Kd (4-parameter fit).
The target is the same in test [11].
The target in test [12] is H3 hemagglutinin (A/Brisbane/10/2007) (influenza A virus A/Brisbane/10/2007 (H3N2)).
In test [13] the target is H7 hemagglutinin (A/Netherlands/219/2003) (influenza A virus A/Netherlands/219/2003 (H7N7)).
The target in test [14] is H5 hemagglutinin (A/Vietnam/1203/2004) (influenza A virus A/Vietnam/1203/2004 (H5N1)). The source holds these as a separate data set.
Test [15] has as its target H3 hemagglutinin (A/Brisbane/10/2007) (influenza A virus A/Brisbane/10/2007 (H3N2)). The test can be described thus: cell-based or functional assay.
Test [16] addresses H3 hemagglutinin (A/Wyoming/03/2003) (influenza A virus A/Wyoming/03/2003 (H3N2)). Briefly: cell-based or functional assay.
Test [17] concerns the target H3 hemagglutinin (A/New York/55/2004) (influenza A virus A/New York/55/2004 (H3N2)). The test can be described thus: ELISA on coated HA.
The target in test [18] is H3 hemagglutinin (A/Brisbane/10/2007) (influenza A virus A/Brisbane/10/2007 (H3N2)). The test can be described thus: ELISA on coated HA.
Test [19] concerns the target H2 hemagglutinin (A/chicken/PA/2004) (influenza A virus A/chicken/PA/2004 (H2)). Briefly: ELISA on coated HA.
For test [20], the target named is HA from influenza B (B/Wisconsin/1/2010) (influenza B virus B/Wisconsin/1/2010). Briefly: ELISA on coated HA.
The target in test [21] is H3 hemagglutinin (A/Perth/16/2006) (influenza A virus A/Perth/16/2006 (H3)). The test can be described thus: ELISA on coated HA.
Test [22] concerns the target H3 hemagglutinin (A/Wyoming/03/2003) (influenza A virus A/Wyoming/03/2003 (H3N2)). Briefly: ELISA on coated HA.
Test [23] deals with H3 hemagglutinin (A/Moscow/10/1999) (influenza A virus A/Moscow/10/1999 (H3)). The test can be described thus: ELISA on coated HA.
Test [24] deals with H7 hemagglutinin (A/Netherlands/219/2003) (influenza A virus A/Netherlands/219/2003 (H7N7)). Briefly: ELISA on coated HA.
Test [25] addresses H3 hemagglutinin (A/Wisconsin/67/2005) (influenza A virus A/Wisconsin/67/2005 (H3N2)). Briefly: ELISA on coated HA.
Test [26] deals with H16 hemagglutinin (A/black headed gull/Mongolia/1756/2006) (influenza A virus A/black headed gull/Mongolia/1756/2006 (H16)). Briefly: ELISA on coated HA.
Test [27] addresses H3 hemagglutinin (A/Uruguay/716/2007) (influenza A virus A/Uruguay/716/2007 (H3)). The test can be described thus: ELISA on coated HA.
The target of test [28] is H9 hemagglutinin (A/Hong Kong/1073/99) (influenza A virus A/Hong Kong/1073/99 (H9)). Briefly: ELISA on coated HA.
For test [29], the target named is H5 hemagglutinin (A/Vietnam/1203/2004) (influenza A virus A/Vietnam/1203/2004 (H5N1)). The test can be described thus: ELISA on coated HA.
Test [30] has as its target H9 hemagglutinin (A/Guinea fowl/HK/WF10/99) (influenza A virus A/Guinea fowl/HK/WF10/99 (H9)). The test can be described thus: ELISA on coated HA.

B1: Ab 037 (antibody, V domains shown)
VH: EVQLLESGGGLVKPGQSLKLSCAASGFTFTSYAMHWVRQPPGKGLEWVAVVSYDGNYKYYADSVQGRFTISRDNSKNTLYLQMNSLRAEDTAVYYCAKDSRLRSLLYFEWLSQGYFNPWGQGTTLTVSS
VL: DIQMTQSPSSLSASVGDRVTITCRSSQSITFNYKNYLGWYQQKPGKAPKLLIYWGSYLESGVPSRFSGSGSGTDFTLTISSLQPEDFATYYCQQHYRTPPSFGQGTKVEIK
One may read the Kd as the concentration at which binding is half-saturated. As to B1, the MIC is 8 µg/mL in test [1] and 4 µg/mL in test [2]. Besides, the Kd in [3] was 0.14 nM; in test [4] it was 0.087 nM; in test [5] it was 0.512 nM; in [6], 0.075 nM; in [7] it was 0.114 nM; in test [8], 0.313 nM. For the same molecule, the Kd is 0.075 nM in test [9] and 0.059 nM in test [10].

B2: Ab 005 (antibody, V domains shown)
VH: B1 VH with E1Q, S7T
VL: DIVMTQSPDTVAVTVGERATINCKSSQTVTFNYKNYLAWYQQKPGQPPKLLIYWASTRESGVPDRFSGSGSGTDFTLTISSLQAEDVAVYYCQQHYRTPPSFGQGTKLDIK
On to B2, for which the MIC in [1] and in test [2] was 10 µg/mL throughout. In addition, the Kd in [3] is 0.065 nM; in test [4] it was 0.052 nM; in test [5] it was 0.311 nM; in test [6] it was less than 0.08 nM; in test [7] it was 0.064 nM; in test [8] it was 1.09 nM. For the same molecule, the Kd in test [9] came to 0.035 nM; in test [10] it was 0.038 nM.

B3: Ab 032 (antibody, V domains shown)
VH: B1 VH with E1Q, S7T
VL: B1 VL with G38A
Usually koff stands for a measure of how fast the partners let go of each other. In general, kon refers to the rate constant with which the complex forms. Higher therefore signals faster complex formation. On to B3, for which the figures for the koff in test [11], in [12] and in [13] were less than 5e-06 s⁻¹, 0.000376 s⁻¹ and 0.000161 s⁻¹, respectively. Further, the Kd in test [12] was 0.234 nM; in test [13], 0.145 nM; in test [3], 0.094 nM; in test [4] it was less than 0.025 nM; in test [5] it was 0.262 nM; in test [7], 0.106 nM. The Kd in test [8] was 0.208 nM; in test [9] it was 0.079 nM; in test [10], less than 0.025 nM. The on-rate constant (kon) in test [12] worked out at 1.61e+06 M⁻¹ s⁻¹; in test [13] it was 1.13e+06 M⁻¹ s⁻¹; in test [14], 988000 M⁻¹ s⁻¹.

B4: Ab 004 (antibody, V domains shown)
VH: B1 VH with E1Q, S7T
VL: B2 VL with V11L, V15L, N22Q, S80T
On to B4, for which the MIC in test [1] is 6 µg/mL; in test [2], 12 µg/mL. In addition, the Kd was 0.066 nM in [3]; less than 0.08 nM in [4]; 0.272 nM in test [5]; less than 0.08 nM in test [6]; 0.073 nM in test [7]; 0.713 nM in test [8]. The Kd in test [9] and in test [10] was 0.06 nM in each case.

B5: Ab 038 (antibody, V domains shown)
VH: B1 VH with E1Q, S7T
VL: B1 VL
In the case of B5, the MIC in [1] is 4 µg/mL; in test [2], 2 µg/mL. Also, the dissociation constant (Kd) in [3] was 0.102 nM; in [4], less than 0.025 nM; in test [5], 0.515 nM; in test [6], 0.064 nM; in test [7], 0.119 nM; in test [8], 0.199 nM. Also, the Kd in test [9] was less than 0.025 nM; in test [10], 0.087 nM.

B6: Ab 044 (antibody, V domains shown)
VH: B1 VH with E1Q, S7T
VL: B1 VL with N32D, G38A
For the molecule B6, the EC50, Neutral Red (CPE inhibition) in [15] stood at 0.3 µg/mL; in test [16], 6.8 µg/mL. The Kd in test [17], in [18], in test [19], in test [20], in [21] and in test [22] was less than 0.5 nM each time. Moreover, the Kd in [23], in [24], in [25], in test [26], in [27] and in test [28] was less than 0.5 nM in each case. The Kd in test [29] and in test [30] was less than 0.5 nM each time.

B7: Ab 031 (antibody, V domains shown)
VH: B1 VH
VL: B1 VL with G38A
Regarding B7, the MIC was 20 µg/mL in test [1] and 1 µg/mL in [2]. For the same molecule, the Kd is 0.059 nM in test [3]; 0.068 nM in test [4]; 0.331 nM in test [5]; less than 0.025 nM in test [6]; 0.091 nM in test [7]; 0.253 nM in [8]. For the same molecule, the Kd in [9] and in test [10] was less than 0.025 nM each time.
